Data taken from publication PMC4154131, “Molecular pathogenesis of Spondylocheirodysplastic Ehlers-Danlos syndrome caused by mutant ZIP13 proteins” (EMBO Molecular Medicine, 2014).

What was measured:
[1] = molecular target: N-terminally 3xFLAG-tagged G64D mutant ZIP13 (human); assay: native gel or EMSA; blue native-PAGE of lysates of 293T cells expressing F-WT or F-G64D
[2] = molecular target: the molecule itself; assay: as above

| stoichiometry N [1] | Molecule | stoichiometry N [2] |
| --- | --- | --- |
| 2 | N-terminally 3xFLAG-tagged G64D mutant ZIP13 (natural protein) | – |
| – | N-terminally 3xFLAG-tagged wild-type ZIP13 (natural protein, human, UniProt Q96H72 1-371, looked up, ZIP13 (SLC39A13) zinc transporter, human, wild type; construct as previously described (Fukada et al, 2008); The 3xFLAG precedes the signal peptide; also called F-WT; F-ZIP13; source: 293T, transfected, in lysate; not shown: 3xFLAG, N-terminal, kept) MPGCPCPGCGMAGPRLLFLTALALELLERAGGSQPALRSRGTATACRLDNKESESWGALLSGERLDTWICSLLGSLMVGLSGVFPLLVIPLEMGTMLRSEAGAWRLKQLLSFALGGLLGNVFLHLLPEAWAYTCSASPGGEGQSLQQQQQLGLWVIAGILTFLALEKMFLDSKEEGTSQAPNKDPTAAAAALNGGHCLAQPAAEPGLGAVVRSIKVSGYLNLLANTIDNFTHGLAVAASFLVSKKIGLLTTMAILLHEIPHEVGDFAILLRAGFDRWSAAKLQLSTALGGLLGAGFAICTQSPKGVVGCSPAAEETAAWVLPFTSGGFLYIALVNVLPDLLEEEDPWRSLQQLLLLCAGIVVMVLFSLFVD | 2 |
